± gives the half width of the 95% confidence interval.
Experiment: folding stability dG unfold from chymotrypsin proteolysis; higher = more stable
Procedure, shortened: (§1)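 Unfolding free energy was derived, per protease or combined, by relating Bayesian-fitted K50 values from sequencing counts to a sequence-predicted unfolded-state K50 and a shared folded-state K50. The underlying digests exposed cysteine-free mini-proteins under 80 residues, in a PA-tagged cDNA display construct, to trypsin and chymotrypsin at 11 threefold-diluted concentrations and to a no-protease condition. A filter kept only designs with AlphaFold2 dimer inter-PAE above 15.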

Row | Sequence | folding stability dG unfold [kcal/mol]
1 | SAGGSAGPSSKPIPLYVLFLEVTKPGGEKLPLVKLVKSPEEALKIAEEIASKGYEVKLVLAPASEISAGGSA [r15_906_TrMRF] | 2.92 ± 0.07
2 | SRRLITIEITVTLPGNPEVTLSKTLKLPTEDVEEAIEKAKKEFKEEFGIPEDVPVKIEVTVSTSDGDPSLQS [r1_149_JUSTAS] | 1.56 ± 0.049
3 | SAGGGMMTLVTLEITIPKPPDPKTGKSRPLPLTLEFEVEADDPEALEERVEEELEKIGIPEEARKLLSAGGS [r16_40_JUSTAS] | 0.547 ± 0.16
4 | SAGGSAGGSAGGDKNKPPKLKVKLKIEFPFTLPDGVKVRLEVEIDLDSDVIEPRAEVIDSSAGGSAGGSAGG [r7_213_TrMRF] | 2.98 ± 0.086
5 | SAGGGLTEEQLEEEAREVAERVEKEFAEATGIEPVEILSVEVFPDGTVRITLRFKGKGGLVTYTIPLSAGGS [r16_622_TrMRF] | 3.58 ± 0.04
6 | SALEIEIEQDEDGNMRISVYLPGWKPIEEQPVPPGDGMKTFIIKLPDRVLMITFTNGGIEPNPVPLNDISAG [r14_403_TrROS] | 2.69 ± 0.092
7 | SAGGSAGGSAMKVALVERPDGSPFLLVFDPDRPGVALLRPLDTDEVEVLPSELLKNLKITASAGGSAGGSAG [r3_451_TrMRF] | 0.68 ± 0.13
8 | SAGGPSVDIDPRLNEDGTPYVLATLHIVPVHSDGSSSSADIPVVFDSLDDLLAFVKAISPGSAKVSLSAGGS [r16_652_TrMRF] | 1.27 ± 0.083
9 | SAGGSAMPDMTAEELAAEVAKKLPPGEKVLIKIRNKNGETKTFELGEDISDLPADEVTEIEIEVLPSAGGSA [r15_50_TrROS_Hall] | 1.05 ± 0.036
10 | SAGGSAGGSAGNPPNKPKPIIKVVPFRYRFYIPETGSVIEIDIYVFEDDTVKIKIKTYPLSAGGSAGGSAGG [r11_883_TrMRF] | 5.38 ± 0.2
11 | SAGGSAGGSAGSTTTTITDPANGEAYEVTSDPNGGATITNPNSSQVYYKNADTITSVGASSAGGSAGGSAGG [r17_476_JUSTAS] | -0.198 ± 0.49
12 | STIRITLPKEELSPELLEALAKAPGLSEEELRDRLTVEEVDGEVVITLSPEVLEELRKRNPELLEALEKASA [r9_160_TrROS_Hall] | 1.91 ± 0.054
13 | SAGGSTLEEIKAAVIKAAEAGEKEAEIEAPLPDGGKLRILKGGVIEFIPEDGVPKRLKISVSEIKVSAGGSA [r2_97_TrMRF] | 0.451 ± 0.36
14 | SAGGSAGGKPKMTFPITDIYPPPGGGNVFIRIQSDDKPREFPFPNLENLEIEKDPEDGTVKIKWSAGGSAGG [r6_806_TrROS] | 0.307 ± 0.39
15 | SAGGSAMEIKTLETKTVKTEKLPDGSTKVTTTYKTVDPSGGKTSNYIKTTLYAPDGKKTSTEVKEKSAGGSA [r15_758_JUSTAS] | 1.03 ± 0.098
16 | SAGGSAGGSAGFKLPPGQEVVFQVSIKLPDGPTQTLEDLENMPPENIDFLEIEISWVPVDSAGGSAGGSAGG [r11_899_TrROS] | 1.81 ± 0.12
17 | SAGGSAGGSSMPTMTKVGDTWLYYDPSTDIKRPATVTVDDGKITIDGDSGTTVYDGDLVIETSSAGGSAGGS [r12_683_JUSTAS] | -0.313 ± 0.13
18 | SAGGSAGGSKLKIPIIRKFKPDEPLPTAEDVKAILEELGLDIKEVKVTYFPEYGYAIAEVEVSSAGGSAGGS [r12_1052_TrMRF] | 1.24 ± 0.039
19 | SAGGSAGGSAGGMNPVSKVTKHSGPNGQVTETTTYFDPASGKTTVTYTDLVTGTTSTISTSAGGSAGGSAGG [r11_1063_JUSTAS] | -1.02 ± 0.41
20 | SAGGSAGGSAKWIYIMLPFPEGQKVEIEYPNGRKHSYEQTPDGMLMIRVRRPNAPIKIKIKSAGGSAGGSAG [r3_334_TrROS] | 2.72 ± 0.23
21 | SGFKVYIPDADLDAAVAVAKALVEKGYDTLLVDSPEVLKAIKEAIPDVKVEPVPVLPPVPPLPGEAEALFSA [r9_639_TrMRF] | 0.573 ± 0.092

Experiment: folding stability dG unfold (combined trypsin and chymotrypsin); higher = more stable
Procedure, shortened: as §1

Row | Sequence | folding stability dG unfold [kcal/mol]
22 | SAGGSAGGSMSKPVKITTTRDPNSNVITIQVESEEDVIEFAKKKGINIKIEPTSENTYKLTLESAGGSAGGS [r12_810_JUSTAS] | 0.113 ± 0.21
23 | SAGGSAGGSDFPVKILEVEFHPNGSITIVIQAPDGWYIKATFHVPPNGNVKMSIELIPDPDAISAGGSAGGS [r20_23_TrROS] | 3.85 ± 0.19
24 | SAGGPMRRVKVEIKDPDGGKIEIDDVYVPDNSVWAKIFLPDLGREIPFPFDTPDQAVEWIKDFVLQLSAGGS [r16_736_TrROS] | 0.929 ± 0.29
25 | SAKMVVLKAYFKGDGDEIKEIADAIDFPYTIEKIPDYPDYYIATFVFPTEEKAPEWEKALKEKGYIVEGSAG [r14_745_TrMRF] | 2.25 ± 0.049
26 | SAGGSAGGSAGGEEKEVYLVRFRRPDGSEVTVVAPWEDLEEIVKSLPEAVEVEVEKAPLSAGGSAGGSAGGS [r10_437_TrMRF] | 1.98 ± 0.17
27 | SFNISVSVEPDDDKYKVTIWIQVDPEEFPGQPPTPSVIEEIARELARDWGIKEVEIEPPPNGYYRHTFPLSA [r9_883_TrROS] | 1.88 ± 0.1
28 | SAGGSAGGSAGKIELTNIQVWPGPNGRPWISMTISFPDGPVTIWIPFDNPDNIEIEIKPGSAGGSAGGSAGG [r17_64_TrROS] | 2.82 ± 0.084
29 | SAGGSAGGSAPRVRYRRRVLVYFPADGSVVPVVLEVSPGPLTLRLDLPAASFPPVRIAPLGSAGGSAGGSAG [r3_454_TrMRF] | 1.98 ± 0.14
30 | SAGGKKIEIKEGDTVKLKNATITLNGKTFKIKDAEAKVVKVDKKKKKVIIEITLKNGKKETFVFDIKSAGGS [r8_215_TrROS_Hall] | 3.15 ± 0.16
31 | SAGGSAGGSAGEFEIIIPPGVAEERPELLEEIRDRFKPLGLEVEVEYIPGEGYVRVKVKGSAGGSAGGSAGG [r11_357_TrMRF] | 1.55 ± 0.11
32 | SAGGSAGGSAGDPVLTVTLLDDNHPVTLTYHPGEKTVTVSVYPLKSGKVLGTVTVPASELSAGGSAGGSAGG [r11_231_TrMRF] | -0.0506 ± 0.12
33 | SAGGSAMVLVRIKLKHPEREEVIEVPAGELLEILEHPELNEHWEIVEIEAREVPPEFVEPEELEEESAGGSA [r15_460_TrMRF] | 0.888 ± 0.13
34 | SAGYEWVRELAKKKGFKDIKIEDVQPQRPPDGMEYMHVRIEVQHPGKKREVDIWMRPDNIEEALEQALKSAG [r5_549_TrROS] | 0.766 ± 0.11
35 | SAKEIASGTFLLDNGATLTVTSIKYDPETGKVSIPVELTVYVPKIDPNDPNKPTIEPFTFKITFTFKVDSAG [r14_888_TrMRF] | 3.34 ± 0.087
36 | SAGGGSISPAIVAALRAAGASLEEIVAYLNEQGYPIASVLGEEEHHHHHHITLLLPETGETVTVELHSAGGS [r8_179_JUSTAS] | 2.79 ± 0.096
37 | SGMIKVSVEEKELKDGTKLYTITVEHPDPEVAKETAEKIVKEKFPKNYKVETKLTESGKVIAPVIVPKKKSA [r9_646_JUSTAS] | 0.9 ± 0.2
38 | SAGGSAFKLTFKNMKIESKMPNPDGQKMIRIEWPDGLSIMIHPPNAIWIMPKDDPEMPPGDMVPIDSAGGSA [r15_692_TrROS] | 0.953 ± 0.28
39 | SAGGSAGGSAGGSMKIELPEGAEITEIKKLPNGTYEMTIRVDGKELKIRFVDGKLVIVPSAGGSAGGSAGGS [r4_280_TrROS_Hall] | 3.56 ± 0.077
40 | SMKSEEEKKAKELKKQKPVIVFDKETGKITVYDAKTGKKIEIEVKVKKTKDGKVEPLTEEELKKLLKKLASA [r9_1056_TrROS_Hall] | 1.12 ± 0.38
41 | SAGGAPSTFTSTSPEGETTVTTTTTYYPETGTTTTTTTTTNPATGTSTTTTTTTPVAPPQPPLLEAGASAGG [r13_694_JUSTAS] | 1.05 ± 0.067
42 | SAMRAAVLAAAEEITAHPEFEAVGISPDGTFLFRNPATGKVYRIRLEAEDDGEGVIVRVPSIEPLDAPDSAG [r14_20_TrMRF] | 1.75 ± 0.087

Row | Sequence | folding stability dG unfold [kcal/mol]
43 | SAGGSAGPSSKPIPLYVLFLEVTKPGGEKLPLVKLVKSPEEALKIAEEIASKGYEVKLVLAPASEISAGGSA [r15_906_TrMRF] | 2.88 ± 0.084
44 | SRRLITIEITVTLPGNPEVTLSKTLKLPTEDVEEAIEKAKKEFKEEFGIPEDVPVKIEVTVSTSDGDPSLQS [r1_149_JUSTAS] | 1.96 ± 0.068
45 | SAGGGMMTLVTLEITIPKPPDPKTGKSRPLPLTLEFEVEADDPEALEERVEEELEKIGIPEEARKLLSAGGS [r16_40_JUSTAS] | 0.698 ± 0.2
46 | SAGGSAGGSAGGDKNKPPKLKVKLKIEFPFTLPDGVKVRLEVEIDLDSDVIEPRAEVIDSSAGGSAGGSAGG [r7_213_TrMRF] | 2.64 ± 0.081
47 | SAGGGLTEEQLEEEAREVAERVEKEFAEATGIEPVEILSVEVFPDGTVRITLRFKGKGGLVTYTIPLSAGGS [r16_622_TrMRF] | 3.42 ± 0.12
48 | SALEIEIEQDEDGNMRISVYLPGWKPIEEQPVPPGDGMKTFIIKLPDRVLMITFTNGGIEPNPVPLNDISAG [r14_403_TrROS] | 2.51 ± 0.23
49 | SAGGSAGGSAMKVALVERPDGSPFLLVFDPDRPGVALLRPLDTDEVEVLPSELLKNLKITASAGGSAGGSAG [r3_451_TrMRF] | 0.344 ± 0.1
50 | SAGGPSVDIDPRLNEDGTPYVLATLHIVPVHSDGSSSSADIPVVFDSLDDLLAFVKAISPGSAKVSLSAGGS [r16_652_TrMRF] | 0.959 ± 0.058
51 | SAGGSAMPDMTAEELAAEVAKKLPPGEKVLIKIRNKNGETKTFELGEDISDLPADEVTEIEIEVLPSAGGSA [r15_50_TrROS_Hall] | 0.781 ± 0.054
52 | SAGGSAGGSAGNPPNKPKPIIKVVPFRYRFYIPETGSVIEIDIYVFEDDTVKIKIKTYPLSAGGSAGGSAGG [r11_883_TrMRF] | 5.03 ± 0.22
53 | SAGGSAGGSAGSTTTTITDPANGEAYEVTSDPNGGATITNPNSSQVYYKNADTITSVGASSAGGSAGGSAGG [r17_476_JUSTAS] | -0.0736 ± 0.19
54 | STIRITLPKEELSPELLEALAKAPGLSEEELRDRLTVEEVDGEVVITLSPEVLEELRKRNPELLEALEKASA [r9_160_TrROS_Hall] | 2.59 ± 0.11
55 | SAGGSTLEEIKAAVIKAAEAGEKEAEIEAPLPDGGKLRILKGGVIEFIPEDGVPKRLKISVSEIKVSAGGSA [r2_97_TrMRF] | 0.0476 ± 0.26
56 | SAGGSAGGKPKMTFPITDIYPPPGGGNVFIRIQSDDKPREFPFPNLENLEIEKDPEDGTVKIKWSAGGSAGG [r6_806_TrROS] | -0.0766 ± 0.31
57 | SAGGSAMEIKTLETKTVKTEKLPDGSTKVTTTYKTVDPSGGKTSNYIKTTLYAPDGKKTSTEVKEKSAGGSA [r15_758_JUSTAS] | 0.773 ± 0.1
58 | SAGGSAGGSAGFKLPPGQEVVFQVSIKLPDGPTQTLEDLENMPPENIDFLEIEISWVPVDSAGGSAGGSAGG [r11_899_TrROS] | 1.57 ± 0.2
59 | SAGGSAGGSSMPTMTKVGDTWLYYDPSTDIKRPATVTVDDGKITIDGDSGTTVYDGDLVIETSSAGGSAGGS [r12_683_JUSTAS] | 0.149 ± 0.1
60 | SAGGSAGGSKLKIPIIRKFKPDEPLPTAEDVKAILEELGLDIKEVKVTYFPEYGYAIAEVEVSSAGGSAGGS [r12_1052_TrMRF] | 1.41 ± 0.067
61 | SAGGSAGGSAGGMNPVSKVTKHSGPNGQVTETTTYFDPASGKTTVTYTDLVTGTTSTISTSAGGSAGGSAGG [r11_1063_JUSTAS] | -0.823 ± 0.17
62 | SAGGSAGGSAKWIYIMLPFPEGQKVEIEYPNGRKHSYEQTPDGMLMIRVRRPNAPIKIKIKSAGGSAGGSAG [r3_334_TrROS] | 2.4 ± 0.25
63 | SGFKVYIPDADLDAAVAVAKALVEKGYDTLLVDSPEVLKAIKEAIPDVKVEPVPVLPPVPPLPGEAEALFSA [r9_639_TrMRF] | 0.684 ± 0.076
